Drawing on article PMC6555819, “Comprehensive study of nuclear receptor DNA binding provides a revised framework for understanding receptor specificity”, this text covers binding signal for 31 molecules.

The labels stand for the following.
B1: NRC3_wobSeed9_DR0_T17G_o1 (dsDNA)
DNA 1: GCATCTCTAGGTAAAGGTCAGTGAAAGATCGATAGAGCGATTGACAGCGTAGAATGAAGG
DNA 2: CCTTCATTCTACGCTGTCAATCGCTCTATCGATCTTTCACTGACCTTTACCTAGAGATGC
B2: NRC3_wobSeed25_DR1_A5G_o1 (dsDNA)
DNA 1: GCCAGACTAGGTCAAAGGTCAAAGTCGAGCCAACCAGCGATTGACAGCGTAGAATGAAGG
DNA 2: CCTTCATTCTACGCTGTCAATCGCTGGTTGGCTCGACTTTGACCTTTGACCTAGTCTGGC
B3: NRC3_wobSeed117_DR4_G26T_o1 (dsDNA)
DNA 1: GCCGTCAAAGTTCAACTAAGGTAACTTAAAGCACGCGCGATTGACAGCGTAGAATGAAGG
DNA 2: CCTTCATTCTACGCTGTCAATCGCGCGTGCTTTAAGTTACCTTAGTTGAACTTTGACGGC
B4: NRC3_wobSeed117_DR4_G20T_o1 (dsDNA)
DNA 1: GCCGTCAAAGTTCAACTAATGTAACGTAAAGCACGCGCGATTGACAGCGTAGAATGAAGG
DNA 2: CCTTCATTCTACGCTGTCAATCGCGCGTGCTTTACGTTACATTAGTTGAACTTTGACGGC
B5: NRC3_wobSeed49_DR2_A5C_o1 (dsDNA)
DNA 1: GCCACACTAGGTCAAGAGGTCAAAGTCCGCTTCCCGGCGATTGACAGCGTAGAATGAAGG
DNA 2: CCTTCATTCTACGCTGTCAATCGCCGGGAAGCGGACTTTGACCTCTTGACCTAGTGTGGC
B6: NRC3_wobSeed41_DR1_T8G_o1 (dsDNA)
DNA 1: GCATATGGAGGTTAAGGGTCATTCAGGTTGGTTCGCGCGATTGACAGCGTAGAATGAAGG
DNA 2: CCTTCATTCTACGCTGTCAATCGCGCGAACCAACCTGAATGACCCTTAACCTCCATATGC
B7: NRC3_wobSeed98_DR4_G11T_o1 (dsDNA)
DNA 1: GCACTAGTTGTTCAGCTGAGGTCACACACAATTCGGGCGATTGACAGCGTAGAATGAAGG
DNA 2: CCTTCATTCTACGCTGTCAATCGCCCGAATTGTGTGTGACCTCAGCTGAACAACTAGTGC
B8: NRC3_wobSeed74_DR3_C13T_o1 (dsDNA)
DNA 1: GCTCTAGTTGGTTACGGAGGTCACACACGACGGGTAGCGATTGACAGCGTAGAATGAAGG
DNA 2: CCTTCATTCTACGCTGTCAATCGCTACCCGTCGTGTGTGACCTCCGTAACCAACTAGAGC
B9: NRC3_wobSeed58_DR2_A22T_o1 (dsDNA)
DNA 1: GCATCGAAAGGTCGTGAGGTGTGTATACAGAAAGGCGCGATTGACAGCGTAGAATGAAGG
DNA 2: CCTTCATTCTACGCTGTCAATCGCGCCTTTCTGTATACACACCTCACGACCTTTCGATGC
B10: NRC3_wobSeed66_DR2_A22C_o1 (dsDNA)
DNA 1: GCAATACAGGGTCACTAGGCCCGAGTAGGTACGAATGCGATTGACAGCGTAGAATGAAGG
DNA 2: CCTTCATTCTACGCTGTCAATCGCATTCGTACCTACTCGGGCCTAGTGACCCTGTATTGC
B11: NRC3_wobSeed99_DR4_G27A_o1 (dsDNA)
DNA 1: GCTCTCGGAGGACACGAAAGGTCAGAACTCGACATCGCGATTGACAGCGTAGAATGAAGG
DNA 2: CCTTCATTCTACGCTGTCAATCGCGATGTCGAGTTCTGACCTTTCGTGTCCTCCGAGAGC
B12: NRC3_wobSeed97_DR4_A6T_o1 (dsDNA)
DNA 1: GCCAATCTAGGTCACGAAAGGTCAAAGTCGAATGACGCGATTGACAGCGTAGAATGAAGG
DNA 2: CCTTCATTCTACGCTGTCAATCGCGTCATTCGACTTTGACCTTTCGTGACCTAGATTGGC
B13: NRC3_wobSeed109_DR4_G25C_o1 (dsDNA)
DNA 1: GCCGTCCAAGGTCATAGGAGGTCACTGAAGACAGATGCGATTGACAGCGTAGAATGAAGG
DNA 2: CCTTCATTCTACGCTGTCAATCGCATCTGTCTTCAGTGACCTCCTATGACCTTGGACGGC
B14: NRC3_wobSeed109_DR4_G17A_o1 (dsDNA)
DNA 1: GCCGTCCAAGGTCATAAGAGGTCAGTGAAGACAGATGCGATTGACAGCGTAGAATGAAGG
DNA 2: CCTTCATTCTACGCTGTCAATCGCATCTGTCTTCACTGACCTCTTATGACCTTGGACGGC
B15: NRC3_wobSeed30_DR1_G7A_o1 (dsDNA)
DNA 1: GCACTAACAGGCCAAGGGTCACTCAAGATTAGTCCGGCGATTGACAGCGTAGAATGAAGG
DNA 2: CCTTCATTCTACGCTGTCAATCGCCGGACTAATCTTGAGTGACCCTTGGCCTGTTAGTGC
B16: NRC3_wobSeed29_DR1_C25T_o1 (dsDNA)
DNA 1: GCGCTTACGGGTCAAAGGTTATAGTATGAATAGAATGCGATTGACAGCGTAGAATGAAGG
DNA 2: CCTTCATTCTACGCTGTCAATCGCATTCTATTCATACTATAACCTTTGACCCGTAAGCGC
B17: NRC3_wobSeed6_DR0_T22C_o1 (dsDNA)
DNA 1: GCCCTAGCAGGCCAGGGTCACCCAAGCATTTCGCTTGCGATTGACAGCGTAGAATGAAGG
DNA 2: CCTTCATTCTACGCTGTCAATCGCAAGCGAAATGCTTGGGTGACCCTGGCCTGCTAGGGC
B18: NRC3_wobSeed130_DR5_T15A_o1 (dsDNA)
DNA 1: GCCTCGAAAGGTCGAGCTCAGGTGAGTATACCAAACGCGATTGACAGCGTAGAATGAAGG
DNA 2: CCTTCATTCTACGCTGTCAATCGCGTTTGGTATACTCACCTGAGCTCGACCTTTCGAGGC
B19: NRC3_wobSeed46_DR1_C7A_o1 (dsDNA)
DNA 1: GCTTACAAAGGTGAAAGGTCGTTGATGCACGCCTTGGCGATTGACAGCGTAGAATGAAGG
DNA 2: CCTTCATTCTACGCTGTCAATCGCCAAGGCGTGCATCAACGACCTTTCACCTTTGTAAGC
B20: NRC3_wobSeed13_DR0_G17C_o1 (dsDNA)
DNA 1: GCCGTCCAAGGTCAAGCTCAGTGAAAGAGACTCGAAGCGATTGACAGCGTAGAATGAAGG
DNA 2: CCTTCATTCTACGCTGTCAATCGCTTCGAGTCTCTTTCACTGAGCTTGACCTTGGACGGC
B21: NRC3_wobSeed13_DR0_C19G_o1 (dsDNA)
DNA 1: GCCGTCCAAGGTCAAGGTGAGTGAAAGAGACTCGAAGCGATTGACAGCGTAGAATGAAGG
DNA 2: CCTTCATTCTACGCTGTCAATCGCTTCGAGTCTCTTTCACTCACCTTGACCTTGGACGGC
B22: NRC3_wobSeed5_DR0_G23T_o1 (dsDNA)
DNA 1: GCCCTTACGGGTCAAGGTTATATCACGGGTGGTACGGCGATTGACAGCGTAGAATGAAGG
DNA 2: CCTTCATTCTACGCTGTCAATCGCCGTACCACCCGTGATATAACCTTGACCCGTAAGGGC
B23: NRC3_wobSeed85_DR3_G17T_o1 (dsDNA)
DNA 1: GCCGTCCAAGGTCAGATAGGTCAGTGAATGCCGAGTGCGATTGACAGCGTAGAATGAAGG
DNA 2: CCTTCATTCTACGCTGTCAATCGCACTCGGCATTCACTGACCTATCTGACCTTGGACGGC
B24: NRC3_wobSeed17_DR0_A24T_o1 (dsDNA)
DNA 1: GCATATGTAGGTTAGGGTCATTCTGAAAGTAGGGAAGCGATTGACAGCGTAGAATGAAGG
DNA 2: CCTTCATTCTACGCTGTCAATCGCTTCCCTACTTTCAGAATGACCCTAACCTACATATGC
B25: NRC3_wobSeed28_DR1_T8A_o1 (dsDNA)
DNA 1: GCCCTACAGGGCCAAAGGTCATTGATTCCAATGCTCGCGATTGACAGCGTAGAATGAAGG
DNA 2: CCTTCATTCTACGCTGTCAATCGCGAGCATTGGAATCAATGACCTTTGGCCCTGTAGGGC
B26: NRC3_wobSeed28_DR1_T22G_o1 (dsDNA)
DNA 1: GCCCTACTGGGCCAAAGGTCAGTGATTCCAATGCTCGCGATTGACAGCGTAGAATGAAGG
DNA 2: CCTTCATTCTACGCTGTCAATCGCGAGCATTGGAATCACTGACCTTTGGCCCAGTAGGGC
B27: NRC3_wobSeed73_DR3_A23G_o1 (dsDNA)
DNA 1: GCCAAACTAGGTCACAGAGGTCGAAGTCCGTGCGTAGCGATTGACAGCGTAGAATGAAGG
DNA 2: CCTTCATTCTACGCTGTCAATCGCTACGCACGGACTTCGACCTCTGTGACCTAGTTTGGC
B28: NRC3_wobSeed125_DR5_A7G_o1 (dsDNA)
DNA 1: GCCCTTGCGGGTCACTGACAGGTTATAGCATTTGGAGCGATTGACAGCGTAGAATGAAGG
DNA 2: CCTTCATTCTACGCTGTCAATCGCTCCAAATGCTATAACCTGTCAGTGACCCGCAAGGGC
B29: NRC3_wobSeed138_DR5_T5C_o1 (dsDNA)
DNA 1: GCGACACAGGGTCAGCTAGAGGCCAGAGTATGGAAAGCGATTGACAGCGTAGAATGAAGG
DNA 2: CCTTCATTCTACGCTGTCAATCGCTTTCCATACTCTGGCCTCTAGCTGACCCTGTGTCGC
B30: NRC3_wobSeed138_DR5_A6C_o1 (dsDNA)
DNA 1: GCGATCCAGGGTCAGCTAGAGGCCAGAGTATGGAAAGCGATTGACAGCGTAGAATGAAGG
DNA 2: CCTTCATTCTACGCTGTCAATCGCTTTCCATACTCTGGCCTCTAGCTGACCCTGGATCGC
B31: NRC3_wobSeed37_DR1_G24A_o1 (dsDNA)
DNA 1: GCCGTCCAAGGTCAAAGGTCAGTAAAGAGATGACGGGCGATTGACAGCGTAGAATGAAGG
DNA 2: CCTTCATTCTACGCTGTCAATCGCCCGTCATCTCTTTACTGACCTTTGACCTTGGACGGC

RARa:RXRa, sequence (P10276 whole entry, chain 1 of 2): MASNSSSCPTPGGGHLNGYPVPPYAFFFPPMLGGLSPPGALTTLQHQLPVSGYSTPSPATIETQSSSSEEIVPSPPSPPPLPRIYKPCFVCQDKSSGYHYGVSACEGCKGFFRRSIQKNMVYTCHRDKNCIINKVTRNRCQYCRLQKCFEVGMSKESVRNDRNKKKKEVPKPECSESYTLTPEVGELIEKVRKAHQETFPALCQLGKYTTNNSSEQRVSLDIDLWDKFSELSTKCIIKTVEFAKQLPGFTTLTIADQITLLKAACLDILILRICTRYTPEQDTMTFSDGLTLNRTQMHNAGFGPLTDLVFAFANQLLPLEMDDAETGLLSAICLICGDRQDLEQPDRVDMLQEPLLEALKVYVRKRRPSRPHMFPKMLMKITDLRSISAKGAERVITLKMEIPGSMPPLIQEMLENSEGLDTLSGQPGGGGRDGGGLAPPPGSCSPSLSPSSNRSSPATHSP
RARa:RXRa, sequence (P19793 whole entry, chain 2 of 2): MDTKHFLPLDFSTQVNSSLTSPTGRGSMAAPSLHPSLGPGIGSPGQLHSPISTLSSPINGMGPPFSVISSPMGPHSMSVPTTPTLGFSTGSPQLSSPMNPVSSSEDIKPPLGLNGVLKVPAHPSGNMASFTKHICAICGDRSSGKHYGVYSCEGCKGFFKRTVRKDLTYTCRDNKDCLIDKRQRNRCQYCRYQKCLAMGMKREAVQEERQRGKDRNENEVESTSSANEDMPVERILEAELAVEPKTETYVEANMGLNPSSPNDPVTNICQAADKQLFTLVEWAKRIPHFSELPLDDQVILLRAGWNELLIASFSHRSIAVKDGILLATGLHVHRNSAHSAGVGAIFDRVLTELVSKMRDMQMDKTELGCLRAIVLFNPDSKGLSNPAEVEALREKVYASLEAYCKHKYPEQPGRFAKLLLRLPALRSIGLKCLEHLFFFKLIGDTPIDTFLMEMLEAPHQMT

The target in the series is RARa:RXRa (Homo sapiens, UniProt P10276;P19793 full;full). As to the kind of experiment: no ligand; PBM; 270 nM : 90 nM RXRa; PBS pH 7.4, 2% milk, 0.02% Triton X-100, 1 mM DTT, BSA, 0.4 mg/ml salmon testes DNA. The settings on record: tags: His kept;His cleaved; copies: 1;1; label: surface-attached array probe. In a few lines:
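Regression normalization was applied to scanned fluorescence from custom Agilent 4×180K protein-binding microarrays. Before scanning, arrays were incubated 1 h with ligand-free nuclear receptor dimers, and binding was detected with antibodies against each partner (one per run). Binding z-scores use the random background probes as reference.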
As to B1, the binding signal was 4.31 PBM z-score against 500 random probes. For B2 the value was 9.27 PBM z-score against 500 random probes; for B3, 4.28 PBM z-score against 500 random probes. Turning to B4, the binding signal is 4.13 PBM z-score against 500 random probes. For B5 the value was 8.44 PBM z-score against 500 random probes. The result for B6 reads 7.62 PBM z-score against 500 random probes; that for B7, 4.63 PBM z-score against 500 random probes. For B8 the value was 4.41 PBM z-score against 500 random probes. Regarding B9, the binding signal is 4.09 PBM z-score against 500 random probes. For B10 the value was 3.99 PBM z-score against 500 random probes; for B11, 4.35 PBM z-score against 500 random probes; for B12, 8.17 PBM z-score against 500 random probes. The result for B13 reads 7.71 PBM z-score against 500 random probes; that for B14, 7.18 PBM z-score against 500 random probes. For B15 the value was 4.53 PBM z-score against 500 random probes. As for B16, the binding signal was 8.73 PBM z-score against 500 random probes. Turning to B17, the binding signal was 3.89 PBM z-score against 500 random probes. With B18, the binding signal was 3.92 PBM z-score against 500 random probes. The result for B19 reads 7.64 PBM z-score against 500 random probes; that for B20, 4.6 PBM z-score against 500 random probes; that for B21, 4.49 PBM z-score against 500 random probes. As for B22, the binding signal is 4.39 PBM z-score against 500 random probes. For the molecule B23, the binding signal was 4.18 PBM z-score against 500 random probes. As to B24, the binding signal was 4.56 PBM z-score against 500 random probes. For B25 the value was 7.45 PBM z-score against 500 random probes. For B26 the value was 4.44 PBM z-score against 500 random probes. Take B27: the binding signal was 4.06 PBM z-score against 500 random probes. B28: the binding signal was 4.21 PBM z-score against 500 random probes. On to B29, for which the binding signal is 4.25 PBM z-score against 500 random probes. The result for B30 reads 4.15 PBM z-score against 500 random probes; that for B31, 9.33 PBM z-score against 500 random probes.
